# Results from paper PMC9482650, “Quantitative fragmentomics allow affinity mapping of interactomes” (Nature Communications, 2022).
# How the values were obtained:
# Assay in all cases: holdup assay
# Set-up in all cases: key: below the threshold = too weak to quantify, mostly under pKd 3.1 to 4
# [1] = molecular target: LIMK2, P53671
# [2] = molecular target: GRIP2_6, Q9C0E4
# [3] = molecular target: IL16_3, Q14005
# [4] = molecular target: T1, DLG3_3, Q92796
# T1 sequence (Q92796 374-475, limits assumed, looked up): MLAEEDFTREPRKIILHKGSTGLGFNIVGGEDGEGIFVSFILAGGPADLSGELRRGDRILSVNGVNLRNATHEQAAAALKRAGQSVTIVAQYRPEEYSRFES
# [5] = molecular target: T2, LIN7C, Q9NUP9
# T2 sequence (Q9NUP9 88-185, limits assumed, looked up): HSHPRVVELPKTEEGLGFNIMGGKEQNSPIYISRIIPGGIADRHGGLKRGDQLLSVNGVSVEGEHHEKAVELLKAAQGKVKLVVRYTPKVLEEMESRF
# [6] = molecular target: DLG1_1, Q12959
# [7] = molecular target: T3, GRIP1_7, Q9Y3R0
# T3 sequence (Q9Y3R0 999-1096, limits assumed, looked up): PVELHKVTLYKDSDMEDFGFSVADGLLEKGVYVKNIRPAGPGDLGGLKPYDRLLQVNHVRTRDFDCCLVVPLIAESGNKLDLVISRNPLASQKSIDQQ
# [8] = molecular target: NHERF4_1, Q86UT5-2
# Chain of NHERF4_1, Q86UT5-2 (Q86UT5 other isoform, or with tags, fused parts or gaps): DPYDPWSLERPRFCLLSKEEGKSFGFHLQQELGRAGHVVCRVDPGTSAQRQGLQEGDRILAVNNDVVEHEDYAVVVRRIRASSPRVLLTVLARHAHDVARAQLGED
# [9] = molecular target: T4, DVL3, Q92997
# T4 sequence (Q92997 244-331, limits assumed, looked up): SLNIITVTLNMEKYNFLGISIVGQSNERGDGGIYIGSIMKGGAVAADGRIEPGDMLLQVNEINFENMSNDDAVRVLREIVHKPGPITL
# [10] = molecular target: PTPN3, P26045
# Chain of PTPN3, P26045 (P26045 505-587): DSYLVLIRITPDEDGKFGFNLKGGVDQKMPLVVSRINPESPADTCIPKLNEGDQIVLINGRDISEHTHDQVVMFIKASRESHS
# [11] = molecular target: T5, MPP2, Q14168
# T5 sequence (Q14168 180-250, limits assumed, looked up): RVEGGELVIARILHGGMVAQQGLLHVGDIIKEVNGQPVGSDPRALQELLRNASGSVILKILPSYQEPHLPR
# [12] = molecular target: MAGI1_2, Q96QZ7
# Chain of MAGI1_2, Q96QZ7 (Q96QZ7 456-580): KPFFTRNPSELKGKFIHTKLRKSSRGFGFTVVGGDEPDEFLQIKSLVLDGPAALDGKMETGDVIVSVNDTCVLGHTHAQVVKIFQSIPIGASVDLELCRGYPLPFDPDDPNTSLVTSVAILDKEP
# [13] = molecular target: Inadl_4, Q8NI35
# Chain of Inadl_4, Q8NI35 (Q8NI35 547-651): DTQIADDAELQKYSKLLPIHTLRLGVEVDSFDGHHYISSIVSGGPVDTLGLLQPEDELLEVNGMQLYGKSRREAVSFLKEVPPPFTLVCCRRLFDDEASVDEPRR
# [14] = molecular target: T6, LNX2_3, Q8N448
# T6 sequence (Q8N448 463-564, limits assumed, looked up): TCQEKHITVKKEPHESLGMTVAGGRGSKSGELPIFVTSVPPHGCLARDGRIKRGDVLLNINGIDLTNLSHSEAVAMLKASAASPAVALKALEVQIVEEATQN
# [15] = molecular target: T7, NHERF3_1, Q5T2W1
# T7 sequence (Q5T2W1 4-100, limits assumed, looked up): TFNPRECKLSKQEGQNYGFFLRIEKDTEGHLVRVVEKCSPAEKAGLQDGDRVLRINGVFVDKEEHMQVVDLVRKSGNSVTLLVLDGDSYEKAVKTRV
# [16] = molecular target: MAGI2_3, Q86UL8
# Chain of MAGI2_3, Q86UL8 (Q86UL8 600-682): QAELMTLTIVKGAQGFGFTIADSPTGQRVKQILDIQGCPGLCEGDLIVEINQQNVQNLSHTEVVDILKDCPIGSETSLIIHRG
# [17] = molecular target: T8, LNX2_2, Q8N448
# T8 sequence (Q8N448 334-432, limits assumed, looked up): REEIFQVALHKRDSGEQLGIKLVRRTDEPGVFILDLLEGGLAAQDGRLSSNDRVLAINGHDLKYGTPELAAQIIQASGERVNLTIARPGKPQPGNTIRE
# [18] = molecular target: T9, DFNB31_3, Q9P202
# T9 sequence (Q9P202 811-907, limits assumed, looked up): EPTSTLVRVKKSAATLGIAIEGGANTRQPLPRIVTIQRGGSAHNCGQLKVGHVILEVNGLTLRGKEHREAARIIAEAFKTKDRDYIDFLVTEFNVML
# [19] = molecular target: TJP2_1, Q9UDY2
# Chain of TJP2_1, Q9UDY2 (Q9UDY2 24-128): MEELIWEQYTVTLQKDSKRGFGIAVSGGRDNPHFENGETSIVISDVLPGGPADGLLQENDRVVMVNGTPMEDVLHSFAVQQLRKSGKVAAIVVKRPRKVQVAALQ
# [20] = molecular target: SCRIB_3, Q14160
# Chain of SCRIB_3, Q14160 (Q14160 999-1103): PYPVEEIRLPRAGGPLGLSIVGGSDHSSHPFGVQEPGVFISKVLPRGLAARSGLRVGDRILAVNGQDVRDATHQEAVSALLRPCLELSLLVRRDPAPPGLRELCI
# [21] = molecular target: SCRIB_2, Q14160
# Chain of SCRIB_2, Q14160 (Q14160 857-960): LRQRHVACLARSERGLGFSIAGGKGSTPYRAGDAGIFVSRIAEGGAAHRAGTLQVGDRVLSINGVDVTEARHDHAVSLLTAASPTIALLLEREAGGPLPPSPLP
# [22] = molecular target: T10, GRIP1_5, Q9Y3R0
# T10 sequence (Q9Y3R0 568-668, limits assumed, looked up): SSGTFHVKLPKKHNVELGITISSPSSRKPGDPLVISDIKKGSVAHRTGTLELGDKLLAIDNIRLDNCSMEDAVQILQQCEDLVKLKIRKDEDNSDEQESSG
# [23] = molecular target: FRMPD3, Q5JV73
# Chain of FRMPD3, Q5JV73 (Q5JV73 12-100): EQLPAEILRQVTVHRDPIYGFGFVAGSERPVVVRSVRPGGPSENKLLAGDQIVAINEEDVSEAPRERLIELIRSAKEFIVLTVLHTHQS
# [24] = molecular target: T11, PTPN13_1, Q12923
# T11 sequence (Q12923 1088-1188, limits assumed, looked up): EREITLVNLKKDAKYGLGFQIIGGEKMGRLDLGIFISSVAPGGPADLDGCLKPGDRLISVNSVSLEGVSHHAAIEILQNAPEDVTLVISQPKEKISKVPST
# [25] = molecular target: LNX1_1, Q8TBB1
# Chain of LNX1_1, Q8TBB1 (Q8TBB1 261-371): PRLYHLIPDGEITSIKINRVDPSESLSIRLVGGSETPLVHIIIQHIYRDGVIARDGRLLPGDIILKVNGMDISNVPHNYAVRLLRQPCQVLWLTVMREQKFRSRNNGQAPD
# [26] = molecular target: T12, DFNB31_2, Q9P202
# T12 sequence (Q9P202 274-371, limits assumed, looked up): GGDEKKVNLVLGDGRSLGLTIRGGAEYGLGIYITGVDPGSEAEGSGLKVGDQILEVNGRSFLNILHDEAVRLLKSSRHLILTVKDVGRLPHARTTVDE
# [27] = plain residues with an end cap or a label only (N-terminal biotin on a linker: ado-ado)
# [28] = plain residues with an end cap or a label only (N-terminal biotin on a linker: ahx)
# Chain of GRIP2_6, Q9C0E4 (Q9C0E4 648-740): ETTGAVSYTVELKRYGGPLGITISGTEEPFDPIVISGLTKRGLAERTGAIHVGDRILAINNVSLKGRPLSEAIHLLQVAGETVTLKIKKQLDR
# Chain of LIMK2, P53671 (P53671 143-248): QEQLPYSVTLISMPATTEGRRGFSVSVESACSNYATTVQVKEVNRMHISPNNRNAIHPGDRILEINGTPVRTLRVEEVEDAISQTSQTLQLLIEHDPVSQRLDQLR
# Chain of IL16_3, Q14005 (Q14005 1107-1207): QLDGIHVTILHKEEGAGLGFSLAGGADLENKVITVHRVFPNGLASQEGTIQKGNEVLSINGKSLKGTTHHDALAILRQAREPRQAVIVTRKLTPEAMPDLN
binder,measurement,setting,value
"VLYPREGTEV [FOXI1, Q12951]",pKd,[1]; [27],below the threshold
same,pKd,[2]; [27],below the threshold
same,pKd,[3]; [27],below the threshold
same,pKd,[4]; [27],3.8
same,pKd,[5]; [27],4.26
same,pKd,[6]; [27],4.4
same,pKd,[7]; [27],below the threshold
same,pKd,[8]; [27],3.71
same,pKd,[9]; [27],below the threshold
same,pKd,[10]; [27],4.76
same,pKd,[11]; [27],below the threshold
same,pKd,[12]; [27],3.95
same,pKd,[13]; [27],below the threshold
same,pKd,[14]; [27],below the threshold
same,pKd,[15]; [27],3.7
same,pKd,[16]; [27],below the threshold
same,pKd,[17]; [27],4.22
same,pKd,[18]; [27],below the threshold
same,pKd,[19]; [27],4
same,pKd,[20]; [27],4.36
same,pKd,[21]; [27],4.16
same,pKd,[22]; [27],below the threshold
same,pKd,[23]; [27],below the threshold
same,pKd,[24]; [27],below the threshold
same,pKd,[25]; [27],4.17
same,pKd,[26]; [27],below the threshold
"MHIQEKGFHV [EPHA6, Q9UF33]",pKd,[1]; [27],below the threshold
same,pKd,[2]; [27],3.59
same,pKd,[3]; [27],below the threshold
same,pKd,[4]; [27],below the threshold
same,pKd,[5]; [27],below the threshold
same,pKd,[6]; [27],below the threshold
same,pKd,[7]; [27],below the threshold
same,pKd,[8]; [27],below the threshold
same,pKd,[9]; [27],below the threshold
same,pKd,[10]; [27],below the threshold
same,pKd,[11]; [27],below the threshold
same,pKd,[12]; [27],below the threshold
same,pKd,[13]; [27],below the threshold
same,pKd,[14]; [27],below the threshold
same,pKd,[15]; [27],3.71
same,pKd,[16]; [27],below the threshold
same,pKd,[17]; [27],4.09
same,pKd,[18]; [27],4.07
same,pKd,[19]; [27],below the threshold
same,pKd,[20]; [27],below the threshold
same,pKd,[21]; [27],below the threshold
same,pKd,[22]; [27],below the threshold
same,pKd,[23]; [27],below the threshold
same,pKd,[24]; [27],below the threshold
same,pKd,[25]; [27],below the threshold
same,pKd,[26]; [27],below the threshold
"EKQAKGDTEF [CACYBP, Q9HB71]",pKd,[1]; [28],below the threshold
same,pKd,[2]; [28],below the threshold
same,pKd,[3]; [28],below the threshold
same,pKd,[4]; [28],below the threshold
same,pKd,[5]; [28],below the threshold
same,pKd,[6]; [28],below the threshold
same,pKd,[7]; [28],below the threshold
same,pKd,[8]; [28],below the threshold
same,pKd,[9]; [28],below the threshold
same,pKd,[10]; [28],4.25
same,pKd,[11]; [28],below the threshold
same,pKd,[12]; [28],below the threshold
same,pKd,[13]; [28],below the threshold
same,pKd,[14]; [28],below the threshold
same,pKd,[15]; [28],below the threshold
same,pKd,[16]; [28],below the threshold
same,pKd,[17]; [28],below the threshold
same,pKd,[18]; [28],below the threshold
same,pKd,[19]; [28],below the threshold
same,pKd,[20]; [28],below the threshold
same,pKd,[21]; [28],below the threshold
same,pKd,[22]; [28],below the threshold
same,pKd,[23]; [28],3.81
same,pKd,[24]; [28],below the threshold
same,pKd,[25]; [28],below the threshold
same,pKd,[26]; [28],below the threshold
"SLNANEVEWF [RNF130, Q86XS8]",pKd,[1]; [27],3.5
same,pKd,[2]; [27],below the threshold
same,pKd,[3]; [27],below the threshold
same,pKd,[4]; [27],3.63
same,pKd,[5]; [27],3.96
same,pKd,[6]; [27],below the threshold
same,pKd,[7]; [27],below the threshold
same,pKd,[8]; [27],3.89
same,pKd,[9]; [27],4.48
same,pKd,[10]; [27],4.36
same,pKd,[11]; [27],below the threshold
same,pKd,[12]; [27],below the threshold
same,pKd,[13]; [27],below the threshold
same,pKd,[14]; [27],below the threshold
same,pKd,[15]; [27],3.89
same,pKd,[16]; [27],3.7
same,pKd,[17]; [27],3.7
same,pKd,[18]; [27],4.16
same,pKd,[19]; [27],3.67
same,pKd,[20]; [27],3.96
same,pKd,[21]; [27],3.57
same,pKd,[22]; [27],below the threshold
same,pKd,[23]; [27],4.07
same,pKd,[24]; [27],3.5
same,pKd,[25]; [27],3.75
same,pKd,[26]; [27],below the threshold
"TRKRSGEAAV [PFKM, P08237]",pKd,[1]; [27],below the threshold
same,pKd,[2]; [27],below the threshold
same,pKd,[3]; [27],below the threshold
same,pKd,[4]; [27],below the threshold
same,pKd,[5]; [27],below the threshold
same,pKd,[6]; [27],below the threshold
same,pKd,[7]; [27],below the threshold
same,pKd,[8]; [27],below the threshold
same,pKd,[9]; [27],below the threshold
same,pKd,[10]; [27],4.15
same,pKd,[11]; [27],below the threshold
same,pKd,[12]; [27],below the threshold
same,pKd,[13]; [27],below the threshold
same,pKd,[14]; [27],below the threshold
same,pKd,[15]; [27],below the threshold
same,pKd,[16]; [27],below the threshold
same,pKd,[17]; [27],3.53
same,pKd,[18]; [27],below the threshold
same,pKd,[19]; [27],below the threshold
same,pKd,[20]; [27],below the threshold
same,pKd,[21]; [27],below the threshold
same,pKd,[22]; [27],below the threshold
same,pKd,[23]; [27],below the threshold
same,pKd,[24]; [27],below the threshold
same,pKd,[25]; [27],below the threshold
same,pKd,[26]; [27],below the threshold
